Data set [1] has as its target T1, MdNAC1 (Malus domestica, UniProt D9ZJ87 1-280).
T1 sequence: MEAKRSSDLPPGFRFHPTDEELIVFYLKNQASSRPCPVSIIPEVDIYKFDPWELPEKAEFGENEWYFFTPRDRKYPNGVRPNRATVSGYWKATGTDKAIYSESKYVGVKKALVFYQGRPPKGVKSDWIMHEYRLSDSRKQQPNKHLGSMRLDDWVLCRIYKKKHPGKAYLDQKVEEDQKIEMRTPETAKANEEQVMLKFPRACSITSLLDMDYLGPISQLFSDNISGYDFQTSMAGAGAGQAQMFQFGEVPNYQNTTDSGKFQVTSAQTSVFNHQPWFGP
Kind of data set: EMSA; unlabeled competitor decreased binding; Thermo Scientific Pierce EMSA kit protocol; buffer, salt, pH and temperature not stated; cold probe 100x. The following applies: protein: recombinant; tags: His (pET32a); chain copies: 2; label: 3' biotin; blunt.

In data set [2] the target is T1, MdNAC1. Kind of data set: EMSA; Thermo Scientific Pierce EMSA kit protocol; buffer, salt, pH and temperature not stated; cold probe 100x. The note with it: protein: recombinant; tags: His (pET32a); chain copies: 2; label: 3' biotin; blunt. (In general: In EMSA bound probe runs differently from free probe, usually more slowly.)

Residue numbers refer to the chain shown, from its start.

B1: UFGT hot probe (box 1) (dsDNA)
DNA 1: GTGATTGGCTTCTGATGTTGACACGTGTCGCGCTGTGGTTGGCTTC
DNA 2: GAAGCCAACCACAGCGCGACACGTGTCAACATCAGAAGCCAATCAC
For B1, in the data set with MdNAC1 [1], the binding result is “binds”.

B2: UFGT mutant probe (box 1) (dsDNA)
DNA 1: B1 DNA 1 with A23C, C24T, G25C
DNA 2: B1 DNA 2 with C22G, G23A, T24G
In the case of B2, the binding result with MdNAC1 [2] is recorded as “no binding”.

B3: MYB10 hot probe (dsDNA)
DNA 1: TTTAATAAAAAGGACCCTGAACACGTGGGAACCGGCCCGTTTGTAA
DNA 2: TTACAAACGGGCCGGTTCCCACGTGTTCAGGGTCCTTTTTATTAAA
Take B3: in the data set with MdNAC1 [1], the binding result is given as “binds”.

B4: MYB10 mutant probe (dsDNA)
DNA 1: B3 DNA 1 with C22T, A23T, C24A, G25A
DNA 2: B3 DNA 2 with C22T, G23T, T24A, G25A
B4: the binding result with MdNAC1 [2] is “no binding”.

(Values after article PMC10186271, “The ABA-induced NAC transcription factor MdNAC1 interacts with a bZIP-type transcription factor to promote anthocyanin synthesis in red-fleshed apples”.)
